Reference: US10100120B2, “Antibody which specifically binds to human CRTH2” (KYOWA HAKKO KIRIN CO., LTD, priority 2015, dated 2018)

Legend:
[1] = test system: human eosinophils; experiment: Reactivity against human eosinophils, flow cytometry; format: binding; details: 0.12-10 μg/mL, 4° C., 1 hour; FIG. 8
Protocol: To human peripheral blood collected by adding a heparin sodium injection liquid, the same amount of physiological saline for injection as the human peripheral blood was added thereto and mixed with each other. 15 mL of Ficoll-Paque PREMIUM 1.084 (GE Healthcare) was added to a 50 mL centrifuge tube, 30 mL of the above described human peripheral blood diluted with physiological saline was overlaid thereon, and centrifugation was performed at room temperature and 1500 rpm for 30 minutes. […]
After the number of cells was counted, eosinophils were isolated by a negative selection method using CD16 MicroBeads, human (Miltenyi Biotec) according to the attached instructions. […]
(§1) After the cells were washed, CELL LAB Mouse Anti-Rat Kappa (kappa light chain specific) FITC (Beckman Coulter Inc.) diluted with SM was added to wells to which Lym2 antibody or BM16 was added and CELL LAB Goat Anti-Mouse IgG (γ chain specific) Fluorescein (FITC) Conjugate (Beckman Coulter Inc.) diluted with SM was added to wells to which 301108 was added at a final concentration of 10 μg/mL respectively to cause a reaction at 4° C. for 1 hour. The cells were washed again and suspended with SM, and the fluorescent intensity was analyzed by flow cytometry (BD Biosciences, FACS CantoII).

[2] = test system: differentiation-induced Th1 cells; experiment: Reactivity against differentiation-induced Th1 cells; format: binding, human; details: antibody 10 μg/mL, 4° C., 1 hour; FIG. 15
Protocol: Healthy person-derived frozen PBMC (Allcells, LLC.) was washed once with 20 mL of PBMC culture medium containing 50 μL of DNase I recombinant, RNase-free (Roche Diagnostics K.K.), suspended with 20 mL of PBMC culture medium containing 50 μL of DNase I recombinant, RNase-free, and allowed to stand in a 5% CO2 incubator at 37° C. for 2 hours.
Thereafter, the cells were washed twice with the MACS buffer described in Example 11 and naive CD4-positive T-cells were isolated by a negative selection method using Naive CD4^+ T Cell Isolation Kit II human (Miltenyi Biotec) according to the attached instructions. The negative selection was performed twice in order to improve purity of the naive CD4-positive T-cells.
According to the method described in J Immunol, 2002. 169(5): p. […]
as §1, with “washed, 10 μg/mL of” for “washed,”, “added, 10 μg/mL of” for “added and”, “μg/mL” for “μg/mL respectively”, “After the” for “The”, “again, the cells were” for “again and”

B1: Lym2 antibody: rat anti-human CRTH2 monoclonal antibody from hybridoma Lym2, rat IgG2b; VH SEQ ID NO: 17, VL SEQ ID NO: 19 (antibody, listed as Rattus norvegicus, V domains shown)
VH: EVQLVESGGGLVQPGRSMKLSCAASGFTFSNYYMAWVRQAPKKGLEWVATISYDGSSTYYRDSVKGRFTISRDNAKSTLYLQMDSLRSEDTATYYCARHRGYYYSGAGYFDYWGQGVMVTVSS
VL: DVVLTQTPVSLSVTLGDQASISCRSSQSLEYSDGYTYLEWYLQKPGQSPQVLIYGVSNRFSGVPDRFIGSGSGTDFTLKISRVEPEDLGVYYCFQATHDPLTFGSGTKLEIK
reactivity against human eosinophils [1]: stronger reactivity
reactivity against the differentiation-induced Th1 [2]: did not exhibit reactivity
